Source: the supplement of paper PMC5998384

Experiments:
HeLa Kyoto [1] = test: solubility in G1/S (NP-40 vs SDS abundance) (log2 ratio); higher = more soluble; settings: cell cycle stage: G1/S
HeLa Kyoto [2] = test: melting temperature (median over replicates), in situ; higher = more thermally stable
HeLa Kyoto [3] = test: solubility change mitosis vs G1/S (difference of NP-40 vs SDS log2 ratios) (log2 ratio difference); higher = more soluble in mitosis
HeLa Kyoto [4] = test: thermal stability score vs G1/S (z-score of summed log2 fold changes over temperatures); higher = more thermally stable than in G1/S
[5] = cell cycle stage: early G1 (4.5 h after nocodazole release)
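Wherever melting temperature (median over replicates), in situ is given: HeLa Kyoto cells synchronized by double thymidine or nocodazole block, proteins quantified by TMT10plex mass spectrometry, three independent biological replicates.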
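Wherever solubility change mitosis vs G1/S (difference of NP-40 vs SDS log2 ratios) is given: synchronized HeLa Kyoto cells (double thymidine block for G1/S, nocodazole release for mitosis), protein amounts in NP-40 versus SDS lysates quantified by mass spectrometry, three biological replicates.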
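Wherever solubility in G1/S (NP-40 vs SDS abundance) is given: HeLa Kyoto cells arrested at G1/S by double thymidine block, proteins quantified by TMT10plex mass spectrometry in mild NP-40 versus SDS extracts, three biological replicates.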
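Wherever thermal stability score vs G1/S (z-score of summed log2 fold changes over temperatures) is given: synchronized HeLa Kyoto cells, proteins quantified by TMT10plex mass spectrometry, three biological replicates, mitosis taken 0.5 h after nocodazole release, G1/S directly after double thymidine block.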

Sequence	solubility in G1/S (log2) (HeLa Kyoto [1])	melting temperature (HeLa Kyoto [2]; cell cycle stage: G1/S)	melting temperature (HeLa Kyoto [2]; cell cycle stage: mitosis)	solubility change mitosis (log2) (HeLa Kyoto [3])	thermal stability score (HeLa Kyoto [4]; [5])	thermal stability score (HeLa Kyoto [4]; cell cycle stage: mitosis)
MLSVRVAAAVVRALPRRAGLVSRNALGSSFIAARNFHASNTHLQKTGTAEMSSILEERILGADTSVDLEETGRVLSIGDGIARVHGLRNVQAEEMVEFSSGLKGMSLNLEPDNVGVVVFGNDKLIKEGDIVKRTGAIVDVPVGEELLGRVVDALGNAIDGKGPIGSKTRRRVGLKAPGIIPRISVREPMQTGIKAVDSLVPIGRGQRELIIGDRQTGKTSIAIDTIINQKRFNDGSDEKKKLYCIYVAIGQKRSTVAQLVKRLTDADAMKYTIVVSATASDAAPLQYLAPYSGCSMGEYFRDNGKHALIIYDDLSKQAVAYRQMSLLLRRPPGREAYPGDVFYLHSRLLERAAKMNDAFGGGSLTALPVIETQAGDVSAYIPTNVISITDGQIFLETELFYKGIRPAINVGLSVSRVGSAAQTRAMKQVAGTMKLELAQYREVAAFAQFGSDLDAATQQLLSRGVRLTELLKQGQYSPMAIEEQVAVIYAGVRGYLDKLEPSKITKFENAFLSHVVSQHQALLGTIRADGKISEQSDAKLKEIVTNFLAGFEA [ATP5A1]	0.231	59.9 °C	58.9 °C	-0.0479	-1.58	-1.35
MLTLQTWLVQALFIFLTTESTGELLDPCGYISPESPVVQLHSNFTAVCVLKEKCMDYFHVNANYIVWKTNHFTIPKEQYTIINRTASSVTFTDIASLNIQLTCNILTFGQLEQNVYGITIISGLPPEKPKNLSCIVNEGKKMRCEWDGGRETHLETNFTLKSEWATHKFADCKAKRDTPTSCTVDYSTVYFVNIEVWVEAENALGKVTSDHINFDPVYKVKPNPPHNLSVINSEELSSILKLTWTNPSIKSVIILKYNIQYRTKDASTWSQIPPEDTASTRSSFTVQDLKPFTEYVFRIRCMKEDGKGYWSDWSEEASGITYEDRPSKAPSFWYKIDPSHTQGYRTVQLVWKTLPPFEANGKILDYEVTLTRWKSHLQNYTVNATKLTVNLTNDRYLATLTVRNLVGKSDAAVLTIPACDFQATHPVMDLKAFPKDNMLWVEWTTPRESVKKYILEWCVLSDKAPCITDWQQEDGTVHRTYLRGNLAESKCYLITVTPVYADGPGSPESIKAYLKQAPPSKGPTVRTKKVGKNEAVLEWDQLPVDVQNGFIRNYTIFYRTIIGNETAVNVDSSHTEYTLSSLTSDTLYMVRMAAYTDEGGKDGPEFTFTTPKFAQGEIEAIVVPVCLAFLLTTLLGVLFCFNKRDLIKKHIWPNVPDPSKSHIAQWSPHTPPRHNFNSKDQMYSDGNFTDVSVVEIEANDKKPFPEDLKSLDLFKKEKINTEGHSSGIGGSSCMSSSRPSISSSDENESSQNTSSTVQYSTVVHSGYRHQVPSVQVFSRSESTQPLLDSEERPEDLQLVDHVDGGDGILPRQQYFKQNCSQHESSPDISHFERSKQVSSVNEEDFVRLKQQISDHISQSCGSGQMKMFQEVSAADAFGPGTEGQVERFETVGMEAATDEGMPKSYLPQTVRQGGYMPQ [IL6ST]	0.0822	53.9 °C	56.2 °C	0.0736	-2.55	-3.18
MLTTLKPFGSVSVESKMNNKAGSFFWNLRQFSTLVSTSRTMRLCCLGLCKPKIVHSNWNILNNFHNRMQSTDIIRYLFQDAFIFKSDVGFQTKGISTLTALRIERLLYAKRLFFDSKQSLVPVDKSDDELKKVNLNHEVSNEDVLTKETKPNRISSRKLSEECNSLSDVLDAFSKAPTFPSSNYFTAMWTIAKRLSDDQKRFEKRLMFSHPAFNQLCEHMMREAKIMQYKYLLFSLHAIVKLGIPQNTILVQTLLRVTQERINECDEICLSVLSTVLEAMEPCKNVHVLRTGFRILVDQQVWKIEDVFTLQVVMKCIGKDAPIALKRKLEMKALRELDRFSVLNSQHMFEVLAAMNHRSLILLDECSKVVLDNIHGCPLRIMINILQSCKDLQYHNLDLFKGLADYVAATFDIWKFRKVLFILILFENLGFRPVGLMDLFMKRIVEDPESLNMKNILSILHTYSSLNHVYKCQNKEQFVEVMASALTGYLHTISSENLLDAVYSFCLMNYFPLAPFNQLLQKDIISELLTSDDMKNAYKLHTLDTCLKLDDTVYLRDIALSLPQLPRELPSSHTNAKVAEVLSSLLGGEGHFSKDVHLPHNYHIDFEIRMDTNRNQVLPLSDVDTTSATDIQRVAVLCVSRSAYCLGSSHPRGFLAMKMRHLNAMGFHVILVNNWEMDKLEMEDAVTFLKTKIYSVEALPVAAVNVQSTQ [FASTKD2]	-0.17	51.8 °C	51.1 °C	-0.134	0.322	0.825
MLVPLAKLSCLAYQCFHALKIKKNYLPLCATRWSSTSTVPRITTHYTIYPRDKDKRWEGVNMERFAEEADVVIVGAGPAGLSAAVRLKQLAVAHEKDIRVCLVEKAAQIGAHTLSGACLDPGAFKELFPDWKEKGAPLNTPVTEDRFGILTEKYRIPVPILPGLPMNNHGNYIVRLGHLVSWMGEQAEALGVEVYPGYAAAEVLFHDDGSVKGIATNDVGIQKDGAPKATFERGLELHAKVTIFAEGCHGHLAKQLYKKFDLRANCEPQTYGIGLKELWVIDEKNWKPGRVDHTVGWPLDRHTYGGSFLYHLNEGEPLVALGLVVGLDYQNPYLSPFREFQRWKHHPSIRPTLEGGKRIAYGARALNEGGFQSIPKLTFPGGLLIGCSPGFMNVPKIKGTHTAMKSGILAAESIFNQLTSENLQSKTIGLHVTEYEDNLKNSWVWKELYSVRNIRPSCHGVLGVYGGMIYTGIFYWILRGMEPWTLKHKGSDFERLKPAKDCTPIEYPKPDGQISFDLLSSVALSGTNHEHDQPAHLTLRDDSIPVNRNLSIYDGPEQRFCPAGVYEFVPVEQGDGFRLQINAQNCVHCKTCDIKDPSQNINWVVPEGGGGPAYNGM [ETFDH]	0.107	54.4 °C	53.8 °C	-0.184	-0.885	-1.65
MMDIYVCLKRPSWMVDNKRMRTASNFQWLLSTFILLYLMNQVNSQKKGAPHDLKCVTNNLQVWNCSWKAPSGTGRGTDYEVCIENRSRSCYQLEKTSIKIPALSHGDYEITINSLHDFGSSTSKFTLNEQNVSLIPDTPEILNLSADFSTSTLYLKWNDRGSVFPHRSNVIWEIKVLRKESMELVKLVTHNTTLNGKDTLHHWSWASDMPLECAIHFVEIRCYIDNLHFSGLEEWSDWSPVKNISWIPDSQTKVFPQDKVILVGSDITFCCVSQEKVLSALIGHTNCPLIHLDGENVAIKIRNISVSASSGTNVVFTTEDNIFGTVIFAGYPPDTPQQLNCETHDLKEIICSWNPGRVTALVGPRATSYTLVESFSGKYVRLKRAEAPTNESYQLLFQMLPNQEIYNFTLNAHNPLGRSQSTILVNITEKVYPHTPTSFKVKDINSTAVKLSWHLPGNFAKINFLCEIEIKKSNSVQEQRNVTIKGVENSSYLVALDKLNPYTLYTFRIRCSTETFWKWSKWSNKKQHLTTEASPSKGPDTWREWSSDGKNLIIYWKPLPINEANGKILSYNVSCSSDEETQSLSEIPDPQHKAEIRLDKNDYIISVVAKNSVGSSPPSKIASMEIPNDDLKIEQVVGMGKGILLTWHYDPNMTCDYVIKWCNSSRSEPCLMDWRKVPSNSTETVIESDEFRPGIRYNFFLYGCRNQGYQLLRSMIGYIEELAPIVAPNFTVEDTSADSILVKWEDIPVEELRGFLRGYLFYFGKGERDTSKMRVLESGRSDIKVKNITDISQKTLRIADLQGKTSYHLVLRAYTDGGVGPEKSMYVVTKENSVGLIIAILIPVAVAVIVGVVTSILCYRKREWIKETFYPDIPNPENCKALQFQKSVCEGSSALKTLEMNPCTPNNVEVLETRSAFPKIEDTEIISPVAERPEDRSDAEPENHVVVSYCPPIIEEEIPNPAADEAGGTAQVIYIDVQSMYQPQAKPEEEQENDPVGGAGYKPQMHLPINSTVEDIAAEEDLDKTAGYRPQANVNTWNLVSPDSPRSIDSNSEIVSFGSPCSINSRQFLIPPKDEDSPKSNGGGWSFTNFFQNKPND [LIFR]	0.206	54.8 °C	55.1 °C	-0.094	-3.21	-1.95
MMEEEELEFVEELEAVLQLTPEVQLAIEQVFPSQDPLDRADFNAVEYINTLFPTEQSLANIDEVVNKIRLKIRRLDDNIRTVVRGQTNVGQDGRQALEEAQKAIQQLFGKIKDIKDKAEKSEQMVKEITRDIKQLDHAKRHLTTSITTLNHLHMLAGGVDSLEAMTRRRQYGEVANLLQGVMNVLEHFHKYMGIPQIRQLSERVKAAQTELGQQILADFEEAFPSQGTKRPGGPSNVLRDACLVANILDPRIKQEIIKKFIKQHLSEYLVLFQENQDVAWLDKIDRRYAWIKRQLVDYEEKYGRMFPREWCMAERIAVEFCHVTRAELAKIMRTRAKEIEVKLLLFAIQRTTNFEGFLAKRFSGCTLTDGTLKKLESPPPSTNPFLEDEPTPEMEELATEKGDLDQPKKPKAPDNPFHGIVSKCFEPHLYVYIESQDKNLGELIDRFVADFKAQGPPKPNTDEGGAVLPSCADLFVYYKKCMVQCSQLSTGEPMIALTTIFQKYLREYAWKILSGNLPKTTTSSGGLTISSLLKEKEGSEVAKFTLEELCLICNILSTAEYCLATTQQLEEKLKEKVDVSLIERINLTGEMDTFSTVISSSIQLLVQDLDAACDPALTAMSKMQWQNVEHVGDQSPYVTSVILHIKQNVPIIRDNLASTRKYFTQFCVKFANSFIPKFITHLFKCKPISMVGAEQLLLDTHSLKMVLLDLPSISSQVVRKAPASYTKIVVKGMTRAEMILKVVMAPHEPLVVFVDNYIKLLTDCNTETFQKILDMKGLKRSEQSSMLELLRQRLPAPPSGAESSGSLSLTAPTPEQESSRIRKLEKLIKKRL [VPS53]	0.196	50 °C	49.7 °C	-0.136	0.237	1.04
MMFYRLLSIVGRQRASPGWQNWSSARNSTSAAEARSMALPTQAQVVICGGGITGTSVAYHLSKMGWKDIVLLEQGRLAAGSTRFCAGILSTARHLTIEQKMADYSNKLYYQLEQETGIQTGYTRTGSIFLAQTQDRLISLKRINAGLNVIGIPSEIISPKKVAELHHLLNVHDLVGAMHVPEDAVVSSADVALALASAASQNGVQIYDRTSVLHVMVKKGQVTGVETDKGQIECQYFVNCAGQWAYELGLSNEEPVSIPLHACEHFYLLTRPLETPLQSSTPTIVDADGRIYIRNWQGGILSGGFEKNPKPIFTEGKNQLEIQNLQEDWDHFEPLLSSLLRRMPELETLEIMKLVNCPETFTPDMRCIMGESPAVQGYFVLAGMNSAGLSFGGGAGKYLAEWMVHGYPSENVWELDLKRFGALQSSRTFLRHRVMEVMPLMYDLKVPRWDFQTGRQLRTSPLYDRLDAQGARWMEKHGFERPKYFVPPDKDLLALEQSKTFYKPDWFDIVESEVKCCKEAVCVIDMSSFTKFEITSTGDQALEVLQYLFSNDLDVPVGHIVHTGMLNEGGGYENDCSIARLNKRSFFMISPTDQQVHCWAWLKKHMPKDSNLLLEDVTWKYTALNLIGPRAVDVLSELSYAPMTPDHFPSLFCKEMSVGYANGIRVMSMTHTGEPGFMLYIPIEYALHVYNEVMSVGQKYGIRNAGYYALRSLRIEKFFAFWGQDINNLTTPLECGRESRVKLEKGMDFIGRDALLQQKQNGVYKRLTMFILDDHDSDLDLWPWWGEPIYRNGQYVGKTTSSAYSYSLERHVCLGFVHNFSEDTGEEQVVTADFINRGEYEIDIAGYRFQAKAKLYPVASLFTQKRRKDDMELSDLHGK [PDPR]	-0.175	53.6 °C	53.7 °C	-0.203	-1.29	-1.55
MMGRSPGFAMQHIVGVPHVLVRRGLLGRDLFMTRTLCSPGPSQPGEKRPEEVALGLHHRLPALGRALGHSIQQRATSTAKTWWDRYEEFVGLNEVREAQGKVTEAEKVFMVARGLVREAREDLEVHQAKLKEVRDRLDRVSREDSQYLELATLEHRMLQEEKRLRTAYLRAEDSEREKFSLFSAAVRESHEKERTRAERTKNWSLIGSVLGALIGVAGSTYVNRVRLQELKALLLEAQKGPVSLQEAIREQASSYSRQQRDLHNLMVDLRGLVHAAGPGQDSGSQAGSPPTRDRDVDVLSAALKEQLSHSRQVHSCLEGLREQLDGLEKTCSQMAGVVQLVKSAAHPGLVEPADGAMPSFLLEQGSMILALSDTEQRLEAQVNRNTIYSTLVTCVTFVATLPVLYMLFKAS [CCDC51]	0.273	53.5 °C	52.7 °C	-0.0792	0.333	0.178
